# Results published in paper PMC13226697, “Stress-induced OMA1-mediated cleavage of AIFM1 suppresses cell growth by controlling mitochondrial OXPHOS activity” (The EMBO Journal, 2026).
# B1: AIFM1^TCS/TEV, soluble product of AIFM1^TCS cleaved by IMS-TEV protease (domain or fragment, murine)
# chain: GVMGLGLSPEEKQRRAIASATEGGSVPQIRAPSHVPFLLIGGGTAAFAAARSIRARDPGARVLIVSEDPELPYMRPPLSKELWFSDDPNVTKTLQFRQWNGKERSIYFQPPSFYVSAQDLPNIENGGVAVLTGKKVVHLDVRGNMVKLNDGSQITFEKCLIATGGTPRSLSAIDRAGAEVKSRTTLFRKIGDFRALEKISREVKSITVIGGGFLGSELACALGRKSQASGIEVIQLFPEKGNMGKILPQYLSNWTMEKVKREGVKVMPNAIVQSVGVSGGRLLIKLKDGRKVETDHIVTAVGLEPNVELAKTGGLEIDSDFGGFRVNAELQARSNIWVAGDAACFYDIKLGRRRVEHHDHAVVSGRLAGENMTGAAKPYWHQSMFWSDLGPDVGYEAIGLVDSSLPTVGVFAKATAQDNPKSATEQSGTGIRSESETESEASEITIPPSAPAVPQVPVEGEDYGKGVIFYLRDKVVVGIVLWNVFNRMPIARKIIKDGEQHEDLNEVAKLFNIHED
# notes: additional glycine residue at the N-terminus, left from the TEV site ENLYFQG after TEV processing; Murine AIFM1 from V98, the residue after the replaced R97, to the end of A.A.1-612; Expected molecular weight ~60 kDa including the Myc tag; The dimer is an estimate from CN-PAGE; also called membrane-dislocated AIFM1 variant; soluble AIFM1^TCS/TEV; not shown: 3x Myc, C-terminal, kept
# Molecular target: the molecule itself
# Assay: native gel or EMSA; CN-PAGE of mitochondria solubilised in 0.5% digitonin, with or without FCCP, immunoblot with AIFM1 antibodies
protein,measurement,value
B1,stoichiometry N,2
